In patent US20170260531:
pKd: −log10 of the molar value.

Experiments:
[1] = test system: T1, VEGF-121 (Homo sapiens), P15692-9; assay: filter; settings: Nap-dU at all P positions; 2'-OMe at C6,G9,C12,G15,A17,G18,Nap22,G28,G29; 0.035 nM in Table 14
T1 sequence: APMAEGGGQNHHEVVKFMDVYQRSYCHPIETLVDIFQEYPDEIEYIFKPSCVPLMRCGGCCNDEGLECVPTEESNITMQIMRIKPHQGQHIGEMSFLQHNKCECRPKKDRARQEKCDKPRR

PDGF-BB (Homo sapiens) = PDGF-BB (Homo sapiens) (UniProt P01127); assay: filter; settings: Bn-dU
UniProt P01127, sequence (P01127 82-190): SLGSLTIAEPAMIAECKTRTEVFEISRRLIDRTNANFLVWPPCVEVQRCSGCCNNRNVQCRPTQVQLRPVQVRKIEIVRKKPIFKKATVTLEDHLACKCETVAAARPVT

Sequence: CCGTTCAAGTGCTTGTAGGATTTAAATGG [4867-31_192]
- pKd [1]: 10.64

Sequence: TACGACTACGTTACACGCGTTTATAGCG [4149-8_64]
- pKd (PDGF-BB (Homo sapiens); C3 at position 1): > 8.00

Sequence: TTACACTACGTTACACGCGTTTATAGCG [4149-8_68]
- pKd (PDGF-BB (Homo sapiens); C3 at position 5): > 8.00

Sequence: TTACGACACGTTACACGCGTTTATAGCG [4149-8_71]
- pKd (PDGF-BB (Homo sapiens); C3 at position 8): > 8.00

Sequence: TTACGACTACGTTAACGCGTTTATAGCG [4149-8_78]
- pKd (PDGF-BB (Homo sapiens); C3 at position 15): > 8.00

Sequence: TTACGACTACGTTACACGCGTTTATAGC [4149-8_92]
- pKd (PDGF-BB (Homo sapiens); C3 at position 29): > 8.00

Sequence: TTACGACTACGTTACACGCGTTTATAGCG [4149-8_44]
- pKd (PDGF-BB (Homo sapiens); 2'-OMe at position 3): > 8.00

Sequence: TTACGACTACGTTACACGCGTTTATAGCG [4149-8_45]
- pKd (PDGF-BB (Homo sapiens); 2'-OMe at position 4): > 8.00

Sequence: TTACGACTACGTTACACGCGTTTATAGCG [4149-8_46]
- pKd (PDGF-BB (Homo sapiens); 2'-OMe at position 5): > 8.00

Sequence: TTACGACTACGTTACACGCGTTTATAGCG [4149-8_47]
- pKd (PDGF-BB (Homo sapiens); 2'-OMe at position 6): > 8.00

Sequence: TTACGACTACGTTACACGCGTTTATAGCG [4149-8_48]
- pKd (PDGF-BB (Homo sapiens); 2'-OMe at position 7): > 8.00

Sequence: TTACGACTACGTTACACGCGTTTATAGCG [4149-8_49]
- pKd (PDGF-BB (Homo sapiens); 2'-OMe at position 9): > 8.00

Sequence: TTACGACTACGTTACACGCGTTTATAGCG [4149-8_50]
- pKd (PDGF-BB (Homo sapiens); 2'-OMe at position 10): > 8.00

Sequence: TTACGACTACGTTACACGCGTTTATAGCG [4149-8_51]
- pKd (PDGF-BB (Homo sapiens); 2'-OMe at position 11): > 8.00

Sequence: TTACGACTACGTTACACGCGTTTATAGCG [4149-8_52]
- pKd (PDGF-BB (Homo sapiens); 2'-OMe at position 14): > 8.00

Sequence: TTACGACTACGTTACACGCGTTTATAGCG [4149-8_53]
- pKd (PDGF-BB (Homo sapiens); 2'-OMe at position 15): > 8.00

Sequence: TTACGACTACGTTACACGCGTTTATAGCG [4149-8_54]
- pKd (PDGF-BB (Homo sapiens); 2'-OMe at position 16): > 8.00

Sequence: TTACGACTACGTTACACGCGTTTATAGCG [4149-8_55]
- pKd (PDGF-BB (Homo sapiens); 2'-OMe at position 17): > 8.00

Sequence: TTACGACTACGTTACACGCGTTTATAGCG [4149-8_56]
- pKd (PDGF-BB (Homo sapiens); 2'-OMe at position 18): > 8.00

Sequence: TTACGACTACGTTACACGCGTTTATAGCG [4149-8_57]
- pKd (PDGF-BB (Homo sapiens); 2'-OMe at position 19): > 8.00

Sequence: TTACGACTACGTTACACGCGTTTATAGCG [4149-8_58]
- pKd (PDGF-BB (Homo sapiens); 2'-OMe at position 20): > 8.00

Sequence: TTACGACTACGTTACACGCGTTTATAGCG [4149-8_59]
- pKd (PDGF-BB (Homo sapiens); 2'-OMe at position 24): > 8.00

Sequence: TTACGACTACGTTACACGCGTTTATAGCG [4149-8_60]
- pKd (PDGF-BB (Homo sapiens); 2'-OMe at position 26): > 8.00

Sequence: TTACGACTACGTTACACGCGTTTATAGCG [4149-8_61]
- pKd (PDGF-BB (Homo sapiens); 2'-OMe at position 27): > 8.00

Sequence: TTACGACTACGTTACACGCGTTTATAGCG [4149-8_62]
- pKd (PDGF-BB (Homo sapiens); 2'-OMe at position 28): > 8.00

Sequence: TTACGACTACGTTACACGCGTTTATAGCG [4149-8_63]
- pKd (PDGF-BB (Homo sapiens); 2'-OMe at position 29): > 8.00

Sequence: TTACGACTACGTTACACGCGTTTATAGG [4149-8_91]
- pKd (PDGF-BB (Homo sapiens); C3 at position 28): > 8.00

Sequence: TTACGACTACGTTACACGCGTTTTAGCG [4149-8_87]
- pKd (PDGF-BB (Homo sapiens); C3 at position 24): > 8.00

Sequence: TTACGACTACGTTACAGCGTTTATAGCG [4149-8_80]
- pKd (PDGF-BB (Homo sapiens); C3 at position 17): > 8.00

Sequence: TTACGACTACGTTACCGCGTTTATAGCG [4149-8_79]
- pKd (PDGF-BB (Homo sapiens); C3 at position 16): > 8.00

Sequence: TTACGACTAGTTACACGCGTTTATAGCG [4149-8_73]
- pKd (PDGF-BB (Homo sapiens); C3 at position 10): > 8.00

Sequence: TTACGACTCGTTACACGCGTTTATAGCG [4149-8_72]
- pKd (PDGF-BB (Homo sapiens); C3 at position 9): > 8.00

Sequence: TTACGATACGTTACACGCGTTTATAGCG [4149-8_70]
- pKd (PDGF-BB (Homo sapiens); C3 at position 7): > 8.00

Sequence: TTACGCTACGTTACACGCGTTTATAGCG [4149-8_69]
- pKd (PDGF-BB (Homo sapiens); C3 at position 6): > 8.00

Sequence: TTACGTTACCGCGTTTATAGCG [4149-8_426]
- pKd (PDGF-BB (Homo sapiens); MBn-dU, Heg, C3, 2'-OMe): < 8.00

Sequence: TTACGTTACCGTTTATAG [4149-8_405]
- pKd (PDGF-BB (Homo sapiens); Heg, C3): < 8.00

Sequence: TTAGACTACGTTACACGCGTTTATAGCG [4149-8_67]
- pKd (PDGF-BB (Homo sapiens); C3 at position 4): > 8.00
